Reference: US20240374719A1 (BIOINVENT INTERNATIONAL, published 2024)
One block for each binder: values may come before it.

Assays:
cmCTLA-4 = biological target: T1, cmCTLA-4 (Macaca fascicularis, UniProt G7PL88); experiment: ELISA, luminescence: antigen coated, antibody titrated [contd.) E]
T1 construct: recombinant protein coated for ELISA; also called cynomolgus CTLA-4; cynomolgus monkey CTLA-4

[1] = biological target: T2, mouse CTLA4-Fc (Sino Biological) (mouse, UniProt P09793 36-162, limits assumed); experiment: ligand-blocking ELISA: mouse CTLA4-Fc coated, antibody titrated, His-tagged mouse CD86 added and detected with anti-His-HRP [contd.) J, panel mCD86]
T2 construct: Bought reagent; also called mouse CTLA-4 protein; recombinant CTLA-4; not shown: Fc part of the bought fusion protein; not described

[2] = biological target: T2, mouse CTLA4-Fc (Sino Biological); experiment: ELISA, luminescence: mouse CTLA4-Fc coated, 5-B07 mIgG2a titrated in 3-fold steps [contd.) E]
[3] = biological target: T2, mouse CTLA4-Fc (Sino Biological); experiment: ligand-blocking ELISA: mouse CTLA4-Fc coated, antibody titrated, His-tagged mouse CD80 added and detected with anti-His-HRP [contd.) J, panel mCD80]
[4] = biological target: T3, mouse CTLA-4 on transfected cells (mouse, UniProt P09793 36-223); experiment: flow cytometry on mCTLA-4-transfected cells, antibody titrated [contd.) I]
T3 construct: whole, on cells; also called mCTLA-4-transfected cells; mouse CTLA-4 transfected CHO cells

[5] = biological target: T4, human CTLA4-Fc (R&D Systems) (human, UniProt P16410 36-161); experiment: ligand-blocking ELISA: human CTLA4-Fc coated, antibody titrated, His-tagged rhCD80 added and detected with anti-His-HRP [contd.) G, panel hCD80]
T4 construct: extracellular domain; Bought reagent; also called rhCTLA-4-Fc; hCTLA-4; not shown: Fc part of the bought fusion protein; not described
T4 sequence (P16410 36-161): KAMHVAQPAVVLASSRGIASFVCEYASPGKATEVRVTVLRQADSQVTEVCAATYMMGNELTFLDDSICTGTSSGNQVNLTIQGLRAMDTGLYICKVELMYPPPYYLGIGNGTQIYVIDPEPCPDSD

[6] = biological target: T5, human CTLA-4 protein (Sino Biological), soluble (human, UniProt P16410 36-162, limits assumed); experiment: SPR (Biacore 3000); mAb captured by immobilised anti-human Fc, soluble human CTLA-4 injected (1.6 to 50 nM)
T5 construct: Analyte of the Biacore experiment; also called soluble human CTLA-4
T5 sequence (P16410 36-162 limits assumed): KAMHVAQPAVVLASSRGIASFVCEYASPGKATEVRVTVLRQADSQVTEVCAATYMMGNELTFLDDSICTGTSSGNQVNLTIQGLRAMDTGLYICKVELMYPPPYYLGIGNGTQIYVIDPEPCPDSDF

[7] = biological target: T6, human CD28-Fc (R&D Systems) (human, UniProt P10747 19-152); experiment: ELISA, luminescence: antigen coated, antibody titrated [contd.) E]
T6 construct: Bought reagent; also called human homologue CD28; not shown: Fc part of the bought fusion protein; not described

[8] = biological target: T2, mouse CTLA4-Fc (Sino Biological); experiment: as above
[9] = biological target: T4, human CTLA4-Fc (R&D Systems); experiment: as above
[10] = biological target: T4, human CTLA4-Fc (R&D Systems); experiment: by the legend: binding to immobilized recombinant hCTLA-4 protein as in FIG. 1E; the y axis reads 'IgG binding (geomean; x10^3)' [contd.) G]
[11] = biological target: T4, human CTLA4-Fc (R&D Systems); experiment: by the legend: binding to immobilized recombinant hCTLA-4 protein as in FIG. 1E; 4-E03 purified from BT-001-infected MIA PaCa-2 cells; the y axis reads 'IgG binding (geomean; x10^3)' [contd.) G]
[12] = biological target: T4, human CTLA4-Fc (R&D Systems); experiment: ligand-blocking ELISA: human CTLA4-Fc coated, antibody titrated, His-tagged rhCD86 added and detected with anti-His-HRP [contd.) G, panel hCD86]
[13] = biological target: T5, human CTLA-4 protein (Sino Biological), …; experiment: SPR (Biacore): antibody at 5 nM captured on immobilized anti-human Fc, human CTLA-4 protein injected at rising concentrations [contd.) C, upper panel]

T1 sequence (G7PL88 entry or part of it): as the sequence (P16410 36-161) above, with S14N, I18T, L106M counted along it

- EC50 (read off the curve) (cmCTLA-4): ~200 pM
B1: ipilimumab (antibody, V domains shown)
VH: QVQLVESGGGVVQPGRSLRLSCAASGFTFSSYTMHWVRQAPGKGLEWVTFISYDGNNKYYADSVKGRFTISRDNSKNTLYLQMNSLRAEDTAIYYCARTGWLGPFDYWGQGTLVTVSS
VL: not shown

- IC50 (read off the curve) [1]: ~600 pM
- EC50 (read off the curve) [2]: ~700 pM
- IC50 (read off the curve) [3]: ~2000 pM
- EC50 (read off the curve) [4]: ~0.8 µg/mL
B2: 5-B07 mIgG2a (anti-mouse CTLA-4, mouse IgG2a) (antibody, V domains shown)
VH: EVQLLESGGGLVQPGGSLRLSCAASGFTFSSYSMNWVRQAPGKGLEWVSAISGSGGSTYYADSVKGRFTISRDNSKNTLYLQMNSLRAEDTAVYYCARDRVEMNQWLADWGQGTLVTVSS
VL: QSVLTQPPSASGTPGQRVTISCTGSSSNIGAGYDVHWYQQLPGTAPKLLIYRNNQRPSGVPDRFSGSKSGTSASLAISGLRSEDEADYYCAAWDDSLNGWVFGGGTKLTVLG
notes: The protein in the assay lacks the signal peptide; also called anti-mCTLA-4 (5-B07); mouse surrogate antibody 5-B07 mIgG2a

- IC50 (read off the curve) [5]: ~1000 pM
- Kd [6]: 600 pM
- binding result [7]: no binding (tested: about 20 nM)
- binding result [8]: binds
- EC50 (read off the curve) [9]: ~300 pM
- EC50 (read off the curve) [10]: ~6000 pM
- EC50 (read off the curve) (cmCTLA-4): ~300 pM
- EC50 (read off the curve) [11]: ~4000 pM
- IC50 (read off the curve) [12]: ~400 pM
- Kd [13]: 400 pM
B3: 4-E03 hIgG1 (anti-human CTLA-4, human IgG1) (antibody, V domains shown)
VH: EVQLLESGGGLVQPGGSLRLSCAASGFTFSDYYMSWVRQAPGKGLEWVSGISWSSRDKGYADSVKGRFTISRDNSKNTLYLQMNSLRAEDTAVYYCTTDLARYWGQGTLVTVSS
VL: QSVLTQPPSASGTPGQRVTISCTGSSSNIGAGYDVHWYQQLPGTAPKLLIYGNDNRPSGVPDRFSGSKSGTSASLAISGLRSEDEADYYCAVWDDSLNGVVFGGGTKLTVLG
notes: Human IgG1 lambda, recombinant (HEK 293 EBNA); also called 4-E03 IgG1; anti-hCTLA-4 (4-E03)

- IC50 (read off the curve) [5]: ~1000 pM
- IC50 (read off the curve) [12]: ~400 pM
B4: 2-C06 (anti-human CTLA-4 antibody clone) (antibody, human IgG1, V domains shown)
VH: EVQLLESGGGLVQPGGSLRLSCAASGFTFSSYAMSWVRQAPGKGLEWVSGISGSGGYIHYADSVKGRFTISRDNSKNTLYLQMNSLRAEDTAVYYCATYSSGLHDAFDIWGQGTLVTVSS
VL: QSVLTQPPSASGTPGQRVTISCTGSSSNIGAGYDVHWYQQLPGTAPKLLIYDNNKRPSGVPDRFSGSKSGTSASLAISGLRSEDEADYYCAAWDDSLNGWVFGGGTKLTVLG
notes: Tested as human IgG1 (lambda light chain)
